{"source": "patent US20240026037A1", "about": "(Memorial Sloan Kettering, published 2024)", "binders": {"B1": {"name": "BC178 (bispecific antibody)", "heavy": "not shown", "light": "DIQMTQSPSSLSTSVGDRVTITCKASQNVRTVVAWYQQKPGKAPKTLIYLASNRHSGVPSRFSGSGSGTEFTLTISNLQPEDFATYYCLQHWSYPLTFGSGTKLEVKRTVAAPSVFIFPPSDEQLKSGTASVVCLLNNFYPREAKVQWKVDNALQSGNSQESVTEQDSKDSTYSLSSTLTLSKADYEKHKVYACEVTHQGLSSPVTKSFNRGECTSGGGGSGGGGSGGGGSHVQLVESGGGLVQPGGSLRLSCAASGFSLTDYGVHWVRQAPGKGLEWLGVIWSGGGTAYNTALISRFTISRDNSKNTLYLQMNSLRAEDTAVYYCARRGSYPYNYFDAWGCGTLVTVSSGGGGSGGGGSGGGGSGGGGSGGGGSGGGGSQAVVTQEPSLTVSPGGTVTLTCGSSTGAVTASNYANWVQQKPGQCPRGLIGGHNNRPPGVPARFSGSLLGGKAALTLLGAQPEDEAEYYCALWYSDHWVIGGGTKLTVLG"}, "B2": {"name": "G3A_chimeric (antibody, V domains shown)", "VH": "EVKLVESGGGLVKPGGSLKLSCAASGFAFSTYDMSWVRQTPEKRLEWVATISSGGSYTYYLDSVKGRFTISRDSARNTLYLQMSSLRSEDTALYYCAPTTVVPFAYWGQGTLVTVSA", "VL": "DIVMTQSQKFMSTSVGDRVSITCKASQNVRTVVAWYQQKPGQSPKTLIYLASNRHTGVPDRFTGSGSGTDFTLTISNVQSEDLADYFCLQHWSYPLTFGSGTKLEVK"}, "B3": {"name": "G3A_VK3+VH1 (antibody, IgG1, V domains shown)", "VH": "EVQLVESGGGLVKPGGSLRLSCAASGFAFSTYDMSWVRQAPGKGLEWVSTISSGGSYTYYADSVKGRFTISRDNAKNSLYLQMNSLRAEDTAVYYCAPTTVVPFAYWGQGTLVTVSA", "VL": "DIQMTQSPSSLSTSVGDRVTITCKASQNVRTVVAWYQQKPGKAPKTLIYLASNRHSGVPSRFSGSGSGTEFTLTISNLQPEDFATYYCLQHWSYPLTFGSGTKLEVK"}, "B4": {"name": "G3A_VK3+VH3 (antibody, IgG1, V domains shown)", "VH": "B3 VH with S49A, N74S", "VL": "B3 VL"}, "B5": {"name": "G3A_VK4+VH3 (antibody, IgG1, V domains shown)", "VH": "B3 VH with S49A, N74S", "VL": "B3 VL with T13A, S56T"}, "B6": {"name": "G3A_VK5+VH1 (antibody, V domains shown)", "VH": "B3 VH", "VL": "B3 VL with T13A, S56T"}, "B7": {"name": "G3A_VK5+VH3 (antibody, V domains shown)", "VH": "B3 VH with S49A, N74S", "VL": "B3 VL with T13A, S56T"}, "B8": {"name": "G3A_VK6+VH1 (antibody, V domains shown)", "VH": "B3 VH", "VL": "B3 VL with T13A, T46R, S56T, Y87F"}, "B9": {"name": "G3A_VK6+VH2 (antibody, V domains shown)", "VH": "B3 VH with S49A, A61L, N74S", "VL": "B3 VL with T13A, T46R, S56T, Y87F"}, "B10": {"name": "G3A_VK6+VH3 (antibody, V domains shown)", "VH": "B3 VH with S49A, N74S", "VL": "B3 VL with T13A, T46R, S56T, Y87F"}, "B11": {"name": "G3A_VK7+VH1 (antibody, V domains shown)", "VH": "B3 VH", "VL": "B3 VL with T13A, T46R, S56T, L78V"}, "B12": {"name": "G3A_VK7+VH2 (antibody, V domains shown)", "VH": "B3 VH with S49A, A61L, N74S", "VL": "B3 VL with T13A, T46R, S56T, L78V"}, "B13": {"name": "G3A_VK7+VH3 (antibody, V domains shown)", "VH": "B3 VH with S49A, N74S", "VL": "B3 VL with T13A, T46R, S56T, L78V"}, "B14": {"name": "G3A_VK8+VH1 (antibody, V domains shown)", "VH": "B3 VH", "VL": "B3 VL with T13A, T46R, S56T, T85D"}, "B15": {"name": "G3A_VK8+VH2 (antibody, V domains shown)", "VH": "B3 VH with S49A, A61L, N74S", "VL": "B3 VL with T13A, T46R, S56T, T85D"}, "B16": {"name": "G3A_VK8+VH3 (antibody, V domains shown)", "VH": "B3 VH with S49A, N74S", "VL": "B3 VL with T13A, T46R, S56T, T85D"}}, "note": "Where a chain is given by its changes, count along the chain named.", "data": [{"biological_target": "T1, Human GPA33 (recombinant protein, Novoprotein) (human, UniProt Q99795 22-235)", "T1 construct": "Bought recombinant protein immobilized on a CM5 chip; also called GPA33 antigen; tumor antigen GPA33", "T1 sequence": "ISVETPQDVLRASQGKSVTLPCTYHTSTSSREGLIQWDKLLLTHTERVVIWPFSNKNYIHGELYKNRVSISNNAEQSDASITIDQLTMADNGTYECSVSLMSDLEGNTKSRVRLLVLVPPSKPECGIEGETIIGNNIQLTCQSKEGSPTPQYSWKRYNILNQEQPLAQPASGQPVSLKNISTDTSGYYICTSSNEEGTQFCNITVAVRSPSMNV", "assay": "SPR (Biacore), human GPA33 immobilized on CM5 chip, two-state fit, kd1", "outline": "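The off-rate (kd1) was measured by surface plasmon resonance on a Biacore T100, with recombinant human GPA33 (Novoprotein) immobilised on a CM5 chip. Antibodies were flowed over at five concentrations, 2-fold serial dilutions starting at 20 nM. The parent IgG1 was run at 25° C and bispecific formats at 25° C and 37° C. Sensorgrams were fitted with a two-state binding model to derive the kinetic parameters.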", "units": {"koff": "s⁻¹"}, "values": [{"binder": "B1", "koff": 0.000511}]}, {"biological_target": "T1, Human GPA33 (recombinant protein, …)", "assay": "SPR (Biacore), binding to GPA33 protein; IgG format", "experimental": "(§1) SPR analysis. Human GPA33 (Novoprotein, Summit, NJ) was immobilized on CM5 chips. Five concentrations of 2-fold serially diluted huA33 IgG1 or huA33-BsAbs (starting at 20 nM) were flowed over the chip using a Biacore™ T100 system (GE Healthcare, Chicago, IL). Binding kinetics of huA33 were measured at 25° C. and binding kinetics of huA33-BsAbs were measured at both 25° C. and 37° C. The sensorgrams were fitted with two state binding model for both to derive kinetic parameters.", "units": {"Kd": "nM"}, "values": [{"binder": "B2", "Kd": 0.196}, {"binder": "B3", "Kd": 0.19}, {"binder": "B4", "Kd": 0.241}, {"binder": "B5", "Kd": 0.236}, {"binder": "B6", "Kd": 0.171}, {"binder": "B7", "Kd": 0.238}, {"binder": "B8", "Kd": 0.884}, {"binder": "B9", "Kd": 1.74}, {"binder": "B10", "Kd": 1.45}, {"binder": "B11", "Kd": 0.888}, {"binder": "B12", "Kd": 1.75}, {"binder": "B13", "Kd": 1.62}, {"binder": "B14", "Kd": 0.975}, {"binder": "B15", "Kd": 1.85}, {"binder": "B16", "Kd": 1.89}]}, {"biological_target": "T1, Human GPA33 (recombinant protein, …)", "assay": "SPR (Biacore), human GPA33 immobilized on CM5 chip, two-state fit, ka1", "experimental": "as §1", "units": {"kon": "M⁻¹ s⁻¹"}, "values": [{"binder": "B1", "kon": "5.5e+06"}]}, {"biological_target": "T2, Human GPA33 on GPA33+ colorectal cancer cell lines (Colo 205, LS 174T, SW 1222) (human, UniProt Q99795 22-319)", "T2 construct": "Endogenous GPA33 on human colorectal cancer cell lines; also called surface human GPA33; GPA33+ tumor cell lines", "T2 sequence": "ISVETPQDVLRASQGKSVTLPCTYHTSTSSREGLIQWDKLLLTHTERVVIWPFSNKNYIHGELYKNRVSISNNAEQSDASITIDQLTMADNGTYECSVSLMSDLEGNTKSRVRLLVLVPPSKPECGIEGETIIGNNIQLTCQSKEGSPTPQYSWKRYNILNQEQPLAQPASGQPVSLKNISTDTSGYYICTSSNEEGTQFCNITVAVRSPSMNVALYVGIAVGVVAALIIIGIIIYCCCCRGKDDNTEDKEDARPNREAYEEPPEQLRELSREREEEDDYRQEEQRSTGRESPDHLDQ", "assay": "cell binding to LS174T Luc cells; IgG format", "units": {"EC50": "µg/mL"}, "values": [{"binder": "B2", "EC50": 0.248}, {"binder": "B3", "EC50": 0.642}, {"binder": "B4", "EC50": 0.398}, {"binder": "B5", "EC50": 0.279}, {"binder": "B6", "EC50": 0.44}, {"binder": "B7", "EC50": 0.424}, {"binder": "B8", "EC50": 0.402}, {"binder": "B10", "EC50": 0.847}, {"binder": "B11", "EC50": 0.481}, {"binder": "B12", "EC50": 0.576}, {"binder": "B13", "EC50": 0.768}, {"binder": "B14", "EC50": 0.454}, {"binder": "B15", "EC50": 1.09}, {"binder": "B16", "EC50": 0.433}]}, {"biological_target": "T2, Human GPA33 on GPA33+ colorectal cancer …", "assay": "cell binding to SW1222 Luc cells; IgG format", "units": {"EC50": "µg/mL"}, "values": [{"binder": "B2", "EC50": 1}, {"binder": "B3", "EC50": 0.338}, {"binder": "B4", "EC50": 0.391}, {"binder": "B5", "EC50": 1.03}, {"binder": "B6", "EC50": 0.496}, {"binder": "B7", "EC50": 0.387}, {"binder": "B8", "EC50": 0.831}, {"binder": "B9", "EC50": 1.07}, {"binder": "B10", "EC50": 0.614}, {"binder": "B11", "EC50": 1.14}, {"binder": "B12", "EC50": 0.795}, {"binder": "B14", "EC50": 0.568}, {"binder": "B15", "EC50": 0.993}, {"binder": "B16", "EC50": 0.792}]}, {"biological_target": "T1, Human GPA33 (recombinant protein, …)", "assay": "SPR (Biacore), human GPA33 immobilized on CM5 chip, two-state fit", "experimental": "as §1", "units": {"Kd": "nM", "ka2": "s⁻¹", "kd2": "s⁻¹"}, "values": [{"binder": "B1", "Kd": 0.00792, "ka2": 0.0541, "kd2": 0.00504}]}]}
